Measured values from PMC9368758, “Cellular Redox Metabolism Is Modulated by the Distinct Localization of Cyclic Nucleotide Phosphodiesterase 5A Isoforms” (International Journal of Molecular Sciences, 2022).
Several values for one entry are separate records, joined by “and”; a condition that tells them apart may be missing. Equal values may be shown once. Values belong to the molecule of their own block, whether it stands above or below them.

How the values were obtained:
[1] = target: MmPDE5A2 (Mus musculus cGMP-specific phosphodiesterase 5A, isoform A2), produced in K. lactis CBS2359 transformed with p3XFlagPDE5A2 (Mus musculus); test: SEC; purified protein (300 ug) on Superose 12 HR 10/30, 4 C, 0.20 mL/min, 20 mM HEPES pH 7.0, 1 mM EGTA, 5 mM beta-mercaptoethanol, 5 mM MgCl2, 100 mM NaCl, 2 mM PMSF, 0.05% Triton X-100; fractions tested for cGMP-hydrolysing activity and by native Western blot; column calibrated with MW markers
[2] = target: MmPDE5A2 (Mus musculus cGMP-specific phosphodiesterase 5A, isoform A2), produced in K. lactis CBS2359 transformed with p3XFlagPDE5A2 (Mus musculus); test: native gel or EMSA; native PAGE, 5% non-denaturing gel, Tris/glycine pH 8.3, 4 C, 1.0 ug purified protein, Coomassie; pre-incubated at 30 C up to 3 h with or without DTT, cGMP, sildenafil or diamide
[3] = target: MmPDE5A2 produced in the K. lactis ragx1 mutant (Mus musculus); test: as above
[4] = target: MmPDE5A3 (Mus musculus cGMP-specific phosphodiesterase 5A, isoform A3), produced in K. lactis wild type strain CBS2359 (Mus musculus); test: SEC; purified protein (300 ug) on Superose 12 HR 10/30, 4 C, 0.20 mL/min, 20 mM HEPES pH 7.0, 1 mM EGTA, 5 mM beta-mercaptoethanol, 5 mM MgCl2, 100 mM NaCl, 2 mM PMSF, 0.05% Triton X-100; fractions tested for cGMP-hydrolysing activity and by native Western blot; column calibrated with MW markers
[5] = target: MmPDE5A3 (Mus musculus cGMP-specific phosphodiesterase 5A, isoform A3), produced in K. lactis wild type strain CBS2359 (Mus musculus); test: native gel or EMSA; native PAGE, 5% non-denaturing gel, Tris/glycine pH 8.3, 4 C, 1.0 ug purified protein, Coomassie; pre-incubated at 30 C up to 3 h with or without DTT, cGMP, sildenafil or diamide
[6] = target: MmPDE5A3 produced in the K. lactis ragx1 mutant (Mus musculus); test: as above
[7] = target: the molecule itself; test: native gel or EMSA; native PAGE of K. lactis cell extracts with in-gel activity staining for G6PDH; cultures on various glucose concentrations, methylene blue, G418, ethanol; extracts also incubated overnight with NAD+ or NADP+

Molecule: MmPDE5A2 (Mus musculus cGMP-specific phosphodiesterase 5A, isoform A2), produced in K. lactis CBS2359 transformed with p3XFlagPDE5A2 (enzyme)
- stoichiometry N [1]: 2
- stoichiometry N [2]: 2

Molecule: MmPDE5A3 (Mus musculus cGMP-specific phosphodiesterase 5A, isoform A3), produced in K. lactis wild type strain CBS2359 (enzyme)
- stoichiometry N [4]: 2
- stoichiometry N [5]: 2

B1: Glc-6-phosphate dehydrogenase (G6PDH) of Kluyveromyces lactis (enzyme, K. lactis (endogenous in CBS2359), UniProt P48828 1-497, looked up)
chain: MATQFDENTVITIFGASGDLSKKKTFPALFGLYREGYLNPTTKIIGYARSKLSNEDLREKVKPFLKKPNGAKDDAKVNEFLSMVSYHAGPYDSDEGYLELKKIIEEFEAEKKVDEPHRLFYLALPPSIFIDVCSKLKENLYTESGIQRVIVEKPFGHDLQSATELQEKLAPLFSEDELFRIDHYLGKEMVKNLLLMRFGNTFLNAAWNKENIQSVQVVFKEPFGTEGRGGYFDSIGIIRDVMQNHLLQVLTLLTMERPVSFDPESVRDEKVKVLKAFSPIDHDDILIGQYGRSVDGSKPSYLDDETVKEDSKCVTFAAIGFKIANERWDGVPIVMRAGKALNEGKVEIRIQFRRVASGMFTDIPNNELVIRIQPNEAIYLKCNAKTPGLANENQTTELDLTYSERYKNYWIPEAYESLIRDALLGDHSNFVRDDELDVSWKLFTPLLNYLEGPDGPQPKIYPYGCRSPDGLVEFLADHGYTFSKPGSYQWPVTTPKM
notes: glucose-6-phosphate 1-dehydrogenase, Kluyveromyces lactis, endogenous enzyme seen by in-gel activity staining; Seen as a slow (tetramer) and a faster (dimer) band; also called glucose 6-phosphate dehydrogenase; source: endogenous, K. lactis cell extracts
- stoichiometry N [7]: 4 and 2

The next lines start with the values.

- stoichiometry N [3]: 2
Molecule: MmPDE5A2 produced in the K. lactis ragx1 mutant (enzyme)

- stoichiometry N [6]: 2
Molecule: MmPDE5A3 produced in the K. lactis ragx1 mutant (enzyme)
